Experimental data reported in paper PMC5066248.

Biological target: His6-GroEL
Experiment: cryo-EM structure; His6-GroEL captured from clarified E. coli lysate on Ni2+-activated BSA-PABA-GO-NTA coated lacey carbon 400 mesh grids; single particle analysis of 5363 particles in EMAN 2.1 with imposed D7 symmetry; 8.1 Å (gold standard, 0.143 criteria)

Sequence of His6-GroEL (A1AJ51 2-548): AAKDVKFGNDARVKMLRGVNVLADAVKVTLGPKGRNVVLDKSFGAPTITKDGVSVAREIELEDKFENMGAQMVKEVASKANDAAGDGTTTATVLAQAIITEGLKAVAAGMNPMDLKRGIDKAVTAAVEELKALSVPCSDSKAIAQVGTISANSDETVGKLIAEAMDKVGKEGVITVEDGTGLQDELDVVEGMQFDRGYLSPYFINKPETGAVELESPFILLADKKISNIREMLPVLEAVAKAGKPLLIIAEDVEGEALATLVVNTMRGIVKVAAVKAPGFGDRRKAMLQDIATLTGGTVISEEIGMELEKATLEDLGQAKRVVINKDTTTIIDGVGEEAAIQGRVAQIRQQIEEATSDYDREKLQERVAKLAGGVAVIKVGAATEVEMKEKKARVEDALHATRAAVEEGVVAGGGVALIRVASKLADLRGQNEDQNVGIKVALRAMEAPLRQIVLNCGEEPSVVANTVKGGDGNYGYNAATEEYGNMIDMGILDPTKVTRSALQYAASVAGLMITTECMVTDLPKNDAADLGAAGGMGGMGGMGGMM

His6-GroEL (natural protein)
stoichiometry N: 14
